# Laboratory results: the nanobody polyreactivity screen of Harvey et al. (2022)
# Test: yeast display, Sf9 membrane polyspecificity reagent, FACS + sequencing; frameworks hold sequencing errors
# In short: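 Polyreactivity labels are assigned by the sorting gate from which each nanobody was recovered. The gates were low and high (top ~1%), set on anti-HA fluorescence for expression and streptavidin fluorescence for reagent binding. Before sorting, galactose-induced (36–48 hours) yeast display cells were stained for 1 hour at 4 °C with 10% biotinylated, detergent-solubilized Sf9 membrane reagent.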
row,Sequence,polyreactivity (PSR sort gate)
1,QVQLVESGGGLVQAGGSLRLSCAASGITFGWYAMGLYRQAPGKERELVAAISTGSSTYYADSVKGRFTISRDNAKNTVYLQMNSLKPEDTAVYYCNAYPGPSGTLYVTPYDYWGQGTQVTVSS,high polyreactivity
2,QVQLVESGGGLVQAGGSLRLSCAASGITFGYNAMGWYRQAPGKDRELVAAITRSAGSTGYADSVKGRFTISRDNAKNTVYLQMNSLKPEDTAVYYCAAVRLSGSHRYGYWGQGTQVTVSS,high polyreactivity
3,QVQLVESGGGLVQAGGSLRLSCAASGITFGYYAMGLYRQAPGKERELVAAISWSGGRTYYADSVKGRLTISRDNAKNTVYLQMNSLKPEDTAVYYCATRYPVRRGSGPSYDYWGQGTQVTVSS,high polyreactivity
4,QVQLVESGGGLVQAGGSLRLSCAASGITFGYYAMGWSRQAAGKEWELVAAISSGGGTYYADSVKGRFTISRDNAKNTVYLQMNSLKPEDTAVYYCNVLRLYPSMDYWGHGTQVTVSS,high polyreactivity
5,QVQLVESGGGLVQAGGSLRLSCAASGITFGYYAMGWYRQAPGKERELVAAISSGGRTYYADSVKGRFTIARDNAKNTVYLQMNSLKPEDTGVYYCAVVARHPSRMDYWGQGTQVTVSS,high polyreactivity
6,QVQLVESGGGLVQAGGSLRLSCAASGITFGYYAMGWYRQAPGKERELVAAITYSGGSTYYADSVKGRFTISRDNAKNTVYLQMNSLKPEDTAVYYCNADWWAYYSFGHEYWGQGTQVTVSS,low polyreactivity
7,QVQLVESGGGLVQAGGSLRLSCAASGITFGYYAMGWYRQAPGKERELVASITSGGSTNYADSVKGRFTISRDNAKNTVYLQMNSLKPEDTAVYYCAKRYYRQYDYWGQGTQVTVSS,low polyreactivity
8,QVQLVESGGGLVQAGGSLRLSCAASGITFGYYAMGWYRQAPGKERELVATITDGGGTKYADSVKGRFTISRDNAKNTVYLQMNSLKPEDTAVYYCAAGLRHVYATEYDYWGQGTQVTVSS,low polyreactivity
9,QVQLVESGGGLVQAGGSLRLSCAASGITFHPYALGWYRQAPGKERELVARIRSTGSTNYADSVKGRFTISRDNAKNTVYLQMNSLKPEDTAVYYCAATFRTGWRPYSFYYWGQGTQVTVSS,high polyreactivity
10,QVQLVESGGGLVQAGGSLRLSCAASGITFHRYAMGWYRQAPGKERELVAGINGRGGSTYYADSVKGRFTISRDNAKNTVYLQMNSLKPEDTAVYYCNAVYAGRYFGFDYWGQGTQVTVSS,high polyreactivity
11,QVQLVESGGGLVQAGGSLRLSCAASGITFHYNAMGWYRQAPGKERELVAAISGSGSNTYYADSVKGRFTISRDNAKNTVYLQMNSLKPEDTAVYYCAKYYYSSNKWMDYWGQGTQVTVSP,high polyreactivity
12,QVQLVESGGGLVQAGGSLRLSCAASGITFIDYAMGGYRQAPGKVRELVAAITVRGSTYYADSVKGRFTISRDNAKNTVYLQMNSLKPEDTAVYYCAADTYVAADSPVTGERDSFDYWGQGTQVTVSS,low polyreactivity
13,QVQLVESGGGLVQAGGSLRLSCAASGITFKRYAMGWYIQAPGKERELVAAISDIGGRTYYADSVKGRFTISRDNAKNTVYLQMNSLKPEDTEVYYCAADYYSPVDWYYYWGQGTQVTVSS,high polyreactivity
14,QVQLVESGGGLVQAGGSLRLSCAASGITFKRYAMGWYRQAPGKERELVAAINGSGGRTYYADSVKGRFTISRDNAKNTVYLQMNSLKPEDTAVYYCNARHIYPSHYDYWGQGTQVTVSS,high polyreactivity
15,QVQLVESGGGLVQAGGSLRLSCAASGITFKRYAMGWYRQAPGKESELVATITWRDGSTYYADSVKGRFTISRDNAKNTVYLQMNSLKPEDTAVYYCAVAAYSRRSPYYHYNYWGQGTQVTVSS,high polyreactivity
16,QVQLVESGGGLVQAGGSLRLSCAASGITFKSNAMGWYRQAPGKERELVAAISRRASSTYYADSVKGRFTISRDNAKNTVYLQRNSLNPEDTAVYYCNAVLPVYRTNMDYWGQGTQVSVSS,high polyreactivity
17,QVQLVESGGGLVQAGGSLRLSCAASGITFLDYAMGWYRQAPGQERELVAAISKRGGSTYYADSVKGRFTISRDKAKNTVYLQMNSLKPEDTAVYYCAAYYHSVRNDYFYYWGQGTQVTVSS,high polyreactivity
18,QVQLVESGGGLVQAGGSLRLSCAASGITFLKYAMGWYRQATGKEREFVAAISRRGGSTYYADSVKGRFTISRDNAKNTVYLQMNSLKPEDTAVYYCAALTVRGTWSQNDYWGQGTQVTVSS,low polyreactivity
19,QVQLVESGGGLVQAGGSLRLSCAASGITFLQYAVGWYRPAPGKERELVAVISRGSRTYYADSVKGRFTISRDNAKNTVYLQMNSLKPEDTAVYYCAAVRGLAVGYDYWGQGTQVTVSS,high polyreactivity
20,QVQLVESGGGLVQAGGSLRLSCAASGITFLVNAMGWYRQAPGKERELVATITSGDSTSYADSVKGRFTISRDNAKNTVYLQMNSLKPEDTAVYFCAARPGYWAQYYPVGSRNYYWGQGTQVTVSS,low polyreactivity
21,QVQLVESGGGLVQAGGSLRLSCAASGITFLVYVMGWYRQAPGKERELVAAISSGGSTYYADSVKGRFTISRDNAKNTVYLQMNSLKPEDTAVYYCSADTVGTNVVSPELDYWGQGTQVTVSS,low polyreactivity
22,QVQLVESGGGLVQAGGSLRLSCAASGITFNAYVMGWYRQAPGKERELVATISQSGGSTYYADSVKGRFTISRDNAKNTVYLQMNSLKPEDTADYYCAARKYGYSYTVTRYYWGQGTQVTVSS,high polyreactivity

row,Sequence,polyreactivity (PSR sort gate)
1,QVQLVESGGGLVQAGGSLRLSCAASGITFNNNGMGWYRQAPGKERELVASIRSGGRTNYADSVKGRFTISRDNAKNTVYLQMNSLKPEDTAVYYCAAVWYTSRQKYDYWGQGTQVTVSS,low polyreactivity
2,QVQLVESGGGLVQAGGSLRLSCAASGITFNPYVMGWYRQAPGKERELVAVITSGGSTNYADSVKGRFTISRDNAKITVYLEMNSLKPEDTAVYYCNVDRRPYYVWRVTYDYWGQGTQVTVSS,low polyreactivity
3,QVQLVESGGGLVQAGGSLRLSCAASGITFNQYAMGWYRQAPGKERELVARITKRGGSTYYADSVKGRFTISRDNAKNTVYLQMNSLKPEDTAVYYCAARTYYQEYDYWGQGTQVTVSS,high polyreactivity
4,QVQLVESGGGLVQAGGSLRLSCAASGITFNSYAMGWYRQAPGKERELVAAITLTGGTTYYADSVKGRFTISRDNAKNTVYLQMNSLKPEDTAVYYCAAQYWWWSRFEYDSWGQGTQVTVSS,low polyreactivity
5,QVQLVESGGGLVQAGGSLRLSCAASGITFNYNAMGWYRQAPGKERELVARITWSGTRTYYADSVKGRFTISRDNSKNTVYFQMNSLKPEDTAVYYCNAGPYARYYWGQGTQVTVSS,high polyreactivity
6,QVQLVESGGGLVQAGGSLRLSCAASGITFNYYAMGWYRQAPGKERELVAVISSSGGRTYYADSVKGRFTISRDNAKNTVYLQMNSLKPEDTAVYYCAAGGSVAFYYWGQGTQVTVSS,high polyreactivity
7,QVQLVESGGGLVQAGGSLRLSCAASGITFPGYAMGWYRQAPGKERELVAAISTSGGSTYYADSVKGRFTISRDNAKNTVYLQMIRLKPEDTAVYYCAADSFVTSFHWRFDYWGQGTQVTVSS,low polyreactivity
8,QVQLVESGGGLVQAGGSLRLSCAASGITFPKYAMGWYRQAPGTERELVAAITKSGGSTYYADSVKGRFTISRDNAKNTVYLQMNSLKPEDTEVYYCAVVSRGITKYDYWGQGTQVTVSS,high polyreactivity
9,QVQLVESGGGLVQAGGSLRLSCAASGITFPLYAMGWYRQAPGKERELVASITRGGTTNYADSVKGRFTISRDNAKNTVYLQMNSLKPEDTAVYYCAAVVTRERGYDYWGQGTQVTVSS,low polyreactivity
10,QVQLVESGGGLVQAGGSLRLSCAASGITFPRYAMGWYRQAPGKERELVATITSRGGSTYYADSVKGRFTISRDNAKNTVYLQMNSLKPEDTAVYYCNAQYLLFHGYRYDYWGQCTQVTVSS,high polyreactivity
11,QVQLVESGGGLVQAGGSLRLSCAASGITFPYYAMGWYRQAPGKERELVAAISSSGGSTYYADSVKGRFTISRDNAKNTVYLQMNSLKPEDTAVYYCAAQRYIHYDYWGQGTQVTVSS,high polyreactivity
12,QVQLVESGGGLVQAGGSLRLSCAASGITFPYYDMGWYRQAAGKERELVAAIDWSGATSYYADSVKGRFTISRDNAKNTVYLQMNSLKPEDTAVYHCNADPPLDLWYVTNRIYHLYDYWGQGTQVTVSS,high polyreactivity
13,QVQLVESGGGLVQAGGSLRLSCAASGITFQHYAMGWYRQAPGKERELVAAITWRGSNTYYADSVKGRFTISRDNAKNTVYLQMNSLKPEDTAVYYCAAVLSLRSRNYWGHGTQVTVSS,high polyreactivity
14,QVQLVESGGGLVQAGGSLRLSCAASGITFQIYAMGWYRQAPGKERELVAAISRSGGSSTNYADSVKGRFTISRDNAKNTVYLQMYSLNPEDTAVYYCAAVSPYTGGANDYWGQGTQVTVSS,high polyreactivity
15,QVQLVESGGGLVQAGGSLRLSCAASGITFQNYAMGWYKQAPGKERELVAAITRSGGRTYYADSVKGRFTISRDNAKNTVYLQMNSLKPEDTAVYYCAVYGIGRPYWYDYWGQGTQLTVSS,high polyreactivity
16,QVQLVESGGGLVQAGGSLRLSCAASGITFQRYAMGWYRQAPGKERELVAAISWSGGSTYYADSVKGRFTISRDNAKNTVYLQMNSLKPVDTAVYYCAAELSVSTSHGVDYWGQGTQVTVSS,high polyreactivity
17,QVQLVESGGGLVQAGGSLRLSCAASGITFQSNAMGWYRQAPGKERELVAGISGSGTSTYYADSVKGRFTISRDNAKNTVYLQMNSLKPEDTAVYYCAAAQSKYSFYWGDYYYWGQGTQVTVSS,high polyreactivity
18,QVQLVESGGGLVQAGGSLRLSCAASGITFQYYAMGWYRQAPGKERELVAAISGGGSTNYADSVKGRFTISRDNAKNTVYLQMNSLKPEDTAVYYCAAADLNLELDYWGQGTQVTVSS,high polyreactivity
19,QVQLVESGGGLVQAGGSLRLSCAASGITFRGYAMGWYRQAPGKERELVADITWNGGSTYYADSVKGRFTISRDNAKNTVYLQMNSLKPEDTAVYYCAADGYPIYWSSYRFYYWGQGTQVTVSS,high polyreactivity
20,QVQLVESGGGLVQAGGSLRLSCAASGITFRHYAMGWYRQAPGKERELVAAITSRGGSTYYADSVKGRFTISRDNAKNTVYLQMNSLKPEDTAVYYCAARRRLRAPDDYWGQGTQVTVSS,high polyreactivity
21,QVQLVESGGGLVQAGGSLRLSCAASGITFRLYAMGWSRQAPGKEREFVAAISRRGGSTYYADSVKGRFTISRDNAKNSVYLQMNSLKPEDTAVYYCARYGLVYALGYWGQGTQVTVSS,high polyreactivity
